What was measured:
[1] = target: T1, mouse serum albumin (Mus musculus, UniProt P07724); assay: SPR binding to mouse serum albumin (Example 1); settings: immobilized MSA, 1:1 Langmuir, Table 2
T1 construct: purchased Sigma-Aldrich
Method: Similarly, a SPR assay was used to determine the binding kinetics to human or mouse serum albumin. […] All analytes (3-fold dilution ranging from 1000-12.35 nM) were injected in succession for 240 s (25 μl/min) and dissociation was recorded for 600 s (25 μl/min). […] The obtained SPR traces were used to determine the ankyrin repeat protein-serum albumin interaction parameters, summarized in Table 2.

[2] = target: T2, human DLL3 (Homo sapiens, UniProt Q9NYJ7); assay: SPR multi-trace analysis, binding to human DLL3 (Example 1); settings: immobilized bio-DLL3 (hDLL3 ECD), PBS pH 7.4, 1:1 Langmuir, Table 1
T2 construct: (Q9NYJ7, Gene ID: 10683, residues 27 to 466; purchased from Evitria); 3C protease recognition site (C); Fc knob into hole (C); purchased Evitria
T2 sequence (Q9NYJ7 27-466): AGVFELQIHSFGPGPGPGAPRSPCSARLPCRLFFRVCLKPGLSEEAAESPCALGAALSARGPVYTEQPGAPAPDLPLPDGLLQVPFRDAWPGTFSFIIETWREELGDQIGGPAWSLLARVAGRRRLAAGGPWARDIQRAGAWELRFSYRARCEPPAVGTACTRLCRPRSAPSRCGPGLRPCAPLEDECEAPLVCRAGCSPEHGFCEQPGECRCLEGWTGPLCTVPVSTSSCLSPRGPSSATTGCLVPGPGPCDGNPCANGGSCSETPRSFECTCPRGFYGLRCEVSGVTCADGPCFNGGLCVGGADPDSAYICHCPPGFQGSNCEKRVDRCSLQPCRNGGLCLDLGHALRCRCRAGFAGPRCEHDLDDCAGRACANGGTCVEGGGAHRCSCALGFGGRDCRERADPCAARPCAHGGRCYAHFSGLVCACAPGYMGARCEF
Method: Kinetic binding parameters and binding affinities of two domain (2D) ankyrin repeat proteins comprising an ankyrin repeat domain with binding specificity for DLL3 and an ankyrin repeat domain with binding specificity for serum albumin were determined by surface plasmon resonance (SPR) multi-trace analysis.
In brief, a SPR assay was used to determine the binding kinetics to the target human DLL3. The data were generated using BioRad ProteOn instrument in SPR running buffer (PBS, pH 7.4 containing 0.005% Tween 20®). […] The chip was coated with biotinylated target (bio-DLL3) to reach a signal intensity of 1780 RU. All analytes (3-fold dilution ranging from 300-33.3 nM) were injected in succession for 240 s (100 μl/min) and dissociation was recorded for 10800 s (100 μl/min). Each injection was followed by a regeneration step with 16 mM H3PO4 for 18 s. […] The bio-DLL3 target used was as described in U.S. 63/550,951, i.e. the extracellular domain (ECD) of human DLL3 protein (Q9NYJ7, Gene ID: 10683, residues 27 to 466; purchased from Evitria) linked via an Avi-tag (for site-directed biotinylation), followed by a 3C protease recognition site, to a Fc knob into hole (hDLL3 ECD-Avi-Fckih).

[3] = test system: hDLL3-MC38 tumor model; assay: Biodistribution of radio-labelled DARPin conjugates in hDLL3-MC38 tumor model; type: in vivo, mouse; settings: Pb-212 DOTAM conjugate 0.01 mg/kg (10 μCi) i.v., s.c. hDLL3-MC38
Excerpt: hDLL3-MC38 tumor model. ATH mice were purchased from Envigo. General handling and maintenance of mice was done as described above for the NCI-H82 tumor model. hDLL3-MC38 cells were purchased from Biocytogen (Catalog No. 311448). […] Cells were quantified using Countess cell counter.
Biodistribution study. […] Based on immunohistochemistry analyses, the hDLL3-MC38 tumors have a higher level of human DLL3 expression than the NCI-H82 tumors described in Example 3 (data not shown). Biodistribution was monitored at 1 h, 4 h and 24h post-injection. Mice were euthanized by CO2 inhalation and cervical dislocation.
Mice were euthanized by CO2 inhalation and cervical dislocation.

[4] = athymic nude mice, 4 h, Example 7
[5] = athymic nude mice, 24 h, Example 7

T1 sequence (P07724 25-608): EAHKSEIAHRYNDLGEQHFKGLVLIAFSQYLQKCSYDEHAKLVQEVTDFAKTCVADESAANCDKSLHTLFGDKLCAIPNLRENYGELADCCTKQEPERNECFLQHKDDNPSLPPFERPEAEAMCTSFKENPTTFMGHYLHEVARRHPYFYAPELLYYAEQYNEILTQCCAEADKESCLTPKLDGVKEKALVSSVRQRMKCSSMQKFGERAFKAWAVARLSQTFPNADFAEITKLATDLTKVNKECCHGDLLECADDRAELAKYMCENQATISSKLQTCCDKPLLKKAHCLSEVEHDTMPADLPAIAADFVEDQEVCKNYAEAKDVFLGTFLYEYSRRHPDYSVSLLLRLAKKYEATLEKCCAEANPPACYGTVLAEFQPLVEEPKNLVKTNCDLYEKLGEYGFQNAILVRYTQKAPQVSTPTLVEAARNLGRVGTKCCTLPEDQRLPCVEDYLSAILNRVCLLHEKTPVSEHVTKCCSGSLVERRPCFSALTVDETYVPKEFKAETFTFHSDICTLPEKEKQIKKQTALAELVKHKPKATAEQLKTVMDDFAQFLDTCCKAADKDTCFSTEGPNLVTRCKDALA

B1: MAM160: Two domain (2D) ankyrin repeat protein: serum albumin-specific domain (SEQ ID NO: 7), PT linker, DLL3-specific domain MAM120 (protein)
chain: DLGKKLLEAARAGQDDEVRELLKAGADVNAKDYFSHTPLHLAARNGHLKIVEVLLKAGADVNAKDFAGKTPLHLAADAGHLEIVEVLLKAGADVNAQDIFGKTPADIAADAGHEDIAEVLQKAAGSPTPTPTTPTPTPTTPTPTPTGSDLGTKLLSAAADGQDDEVRELLQAGADVNAKDLFGYTPLHLAAWRGHLEIVEVLLEAGADVNAKDAAGLTPLHLAAWFGHLEIVEVLLEAGADVNAQDVQGVTPADLAAKEGHEDIAEVLQQAA
modifications: Ankyrin repeat protein (MAM160)
- Kd [1]: 336 nM
- Koff MSA [1]: 0.0271 s⁻¹
- Kon MSA [1]: 80430 M⁻¹ s⁻¹
- Kd [2]: 1.99 nM
- koff [2]: 2.01e-05 s⁻¹
- kon [2]: 10100 M⁻¹ s⁻¹
- Blood % ID/g ([3]; athymic mice, 1 h, Example 4): 38 % ID/g
- Kidneys % ID/g ([3]; athymic mice, 1 h, Example 4): 12 % ID/g
- T:K ratio ([3]; athymic mice, 1 h, Example 4): 0.58
- Tumors % ID/g ([3]; athymic mice, 1 h, Example 4): 7 % ID/g
- Blood % ID/g ([3]; athymic mice, 4 h, Example 4): 25 % ID/g
- Kidneys % ID/g ([3]; athymic mice, 4 h, Example 4): 12 % ID/g
- T:K ratio ([3]; athymic mice, 4 h, Example 4): 1.42
- Tumors % ID/g ([3]; athymic mice, 4 h, Example 4): 17 % ID/g
- Blood % ID/g ([3]; athymic mice, 24 h, Example 4): 3 % ID/g
- Kidneys % ID/g ([3]; athymic mice, 24 h, Example 4): 17 % ID/g
- T:K ratio ([3]; athymic mice, 24 h, Example 4): 1.53
- Tumors % ID/g ([3]; athymic mice, 24 h, Example 4): 26 % ID/g
- Blood % ID/g [3, 4]: 17.9 % ID/g
- Kidneys % ID/g [3, 4]: 11.6 % ID/g
- Tumors % ID/g [3, 4]: 18.8 % ID/g
- Blood % ID/g [3, 5]: 1.9 % ID/g
- Kidneys % ID/g [3, 5]: 18 % ID/g
- Tumors % ID/g [3, 5]: 28.9 % ID/g

Source: patent publication US20250332297A1, “DLL3-SPECIFIC BINDING CONSTRUCTS AND THEIR USE IN RADIOTHERAPY” (MOLECULAR PARTNERS AG, priority 2024, published 2025)
